According to article PMC9277520:
Values belong to the substance of their own block, whether it stands above or below them.

Tests used:
Assay in all cases: SEC; BV-bound protein on a Superdex 200 10/300 GL column, absorbance at 280, 380 and 630 nm, calibrated with a standard protein mixture; self-association (monomer or tetramer)
[1] = target: Sandercyanin F55A variant (Stizostedion vitreum (Canadian walleye))
[2] = target: Sandercyanin F106A variant (Stizostedion vitreum (Canadian walleye))
[3] = target: Sandercyanin H108A variant (Stizostedion vitreum (Canadian walleye))
[4] = target: Sandercyanin Y142A variant (Stizostedion vitreum (Canadian walleye))
[5] = target: wild-type Sandercyanin (SFP) (Stizostedion vitreum (Canadian walleye))

- stoichiometry N [1]: 4
Substance: Sandercyanin F55A variant (natural protein)

- stoichiometry N [2]: 4
Substance: Sandercyanin F106A variant (natural protein)

- stoichiometry N [3]: 4
Substance: Sandercyanin H108A variant (natural protein)

- stoichiometry N [4]: 4
Substance: Sandercyanin Y142A variant (natural protein)

- stoichiometry N [5]: 4
Substance: wild-type Sandercyanin (SFP) (natural protein)
